This assay has as its target fibrin (human) (UniProt P02671).
UniProt P02671, sequence (P02671 36-866, chain 1 of 3): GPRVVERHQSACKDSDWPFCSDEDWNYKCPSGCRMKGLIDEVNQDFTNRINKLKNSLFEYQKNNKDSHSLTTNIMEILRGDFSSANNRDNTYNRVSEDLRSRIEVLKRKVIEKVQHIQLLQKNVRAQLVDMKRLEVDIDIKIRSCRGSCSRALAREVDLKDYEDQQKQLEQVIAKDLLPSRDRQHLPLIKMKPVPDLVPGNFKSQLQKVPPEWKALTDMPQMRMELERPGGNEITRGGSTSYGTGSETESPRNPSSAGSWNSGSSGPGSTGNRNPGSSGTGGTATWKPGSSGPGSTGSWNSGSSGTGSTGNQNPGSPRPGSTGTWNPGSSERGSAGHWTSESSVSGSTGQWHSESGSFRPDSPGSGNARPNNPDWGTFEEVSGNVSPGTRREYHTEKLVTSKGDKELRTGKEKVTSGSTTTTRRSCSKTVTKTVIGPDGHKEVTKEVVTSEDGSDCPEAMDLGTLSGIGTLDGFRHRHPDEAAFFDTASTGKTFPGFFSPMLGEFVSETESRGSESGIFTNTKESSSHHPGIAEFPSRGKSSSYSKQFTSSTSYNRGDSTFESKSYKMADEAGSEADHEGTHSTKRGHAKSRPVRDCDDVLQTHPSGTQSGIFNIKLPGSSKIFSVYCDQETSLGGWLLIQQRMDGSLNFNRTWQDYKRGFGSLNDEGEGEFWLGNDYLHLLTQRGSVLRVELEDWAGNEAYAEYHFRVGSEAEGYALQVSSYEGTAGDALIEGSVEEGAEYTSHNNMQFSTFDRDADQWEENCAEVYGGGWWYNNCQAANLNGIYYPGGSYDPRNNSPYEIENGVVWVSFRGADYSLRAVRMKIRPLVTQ
UniProt P02671, sequence (P02675 45-491, chain 2 of 3, further chain): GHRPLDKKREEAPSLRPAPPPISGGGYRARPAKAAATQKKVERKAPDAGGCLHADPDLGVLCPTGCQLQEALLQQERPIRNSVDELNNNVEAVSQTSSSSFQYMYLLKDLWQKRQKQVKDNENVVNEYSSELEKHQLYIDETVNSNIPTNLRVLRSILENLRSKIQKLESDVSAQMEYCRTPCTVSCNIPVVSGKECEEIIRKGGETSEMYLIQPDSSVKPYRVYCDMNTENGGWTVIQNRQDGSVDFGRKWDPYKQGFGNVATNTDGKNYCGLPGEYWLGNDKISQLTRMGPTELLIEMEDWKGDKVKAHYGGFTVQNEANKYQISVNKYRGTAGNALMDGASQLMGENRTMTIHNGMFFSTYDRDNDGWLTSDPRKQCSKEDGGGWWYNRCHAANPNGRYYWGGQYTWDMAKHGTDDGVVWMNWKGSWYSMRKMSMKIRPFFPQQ
UniProt P02671, sequence (P02679 27-453, chain 3 of 3, further chain): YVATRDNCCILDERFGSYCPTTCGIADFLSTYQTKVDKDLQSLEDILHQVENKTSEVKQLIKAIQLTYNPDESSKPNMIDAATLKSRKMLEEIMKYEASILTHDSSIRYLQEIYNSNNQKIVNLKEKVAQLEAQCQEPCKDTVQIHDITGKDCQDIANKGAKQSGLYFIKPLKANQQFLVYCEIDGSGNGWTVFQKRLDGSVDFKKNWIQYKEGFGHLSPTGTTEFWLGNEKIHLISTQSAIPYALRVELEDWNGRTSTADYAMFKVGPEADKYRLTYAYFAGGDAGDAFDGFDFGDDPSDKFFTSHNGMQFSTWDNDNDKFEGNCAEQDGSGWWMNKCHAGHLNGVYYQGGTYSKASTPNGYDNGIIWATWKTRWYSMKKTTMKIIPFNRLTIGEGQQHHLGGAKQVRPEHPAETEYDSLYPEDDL
Substance “QNGlyα2-2 (DSPAα2 N398Q) (from UniProt P15638 37-477) (enzyme)” came in with a stimulation factor of S-2765 hydrolysis: Kcat/Km with fibrin cofactor (100 μg/mL) over Kcat/Km without cofactor of 7.4 fold.
For “ANGlyα2+1 (DSPAα2 N155S, added N-glycosylation site N153) (from UniProt P15638 37-477) (enzyme)” the value was 3.1 fold.
For “QNGlyα2-1 (DSPAα2 N185Q) (from UniProt P15638 37-477) (enzyme)” the value was 2 fold.
With “QNGlyα2 (DSPAα2 N185Q-N398Q) (from UniProt P15638 37-477) (enzyme)”, the stimulation factor of S-2765 hydrolysis: Kcat/Km with fibrin cofactor (100 μg/mL) over Kcat/Km without cofactor was found to be 1.7 fold.
As to “recombinant DSPAα2 (bat plasminogen activator α2), wild type (from UniProt P15638 37-477) (enzyme)”, the stimulation factor of S-2765 hydrolysis: Kcat/Km with fibrin cofactor (100 μg/mL) over Kcat/Km without cofactor is 11.3 fold.

The record behind these values is publication PMC9497888.
